# Test results: patent US8217140B2, “Peptides capable of binding to serum proteins and compounds, constructs and polypeptides comprising the same” (Ablynx N.V., priority 2008, dated 2012)
# Like-named read-outs stand apart in the source and are kept apart here.
# Key:
# [1] = test system: platelet adhesion to fibrillar collagen; assay: Perfusion experiments: platelet adhesion to collagen at arterial shear rate; assay type: cell-based, human
# Experimental: The perfusion experiments were performed with a single-pass perfusion chamber under non-pulsatile flow conditions using a modified small perfusion chamber with a slit height of 0.1 mm and a slit width of 2 mm. […] Citrated human blood was preincubated at 37° C. for 5 min with or without addition of test compound, and then perfused through the chamber for 5 min at a wall shear rate of 1600 s^−1 using an infusion/withdrawal pump (pump 22, model 2400-004, Harvard Apparatus, Holliston, Mass.). After the perfusion run, the coverslips were rinsed in Hepes buffered saline (10 mM Hepes, 150 mM NaCl, pH 7.4) and platelets were fixed with 5% glutaraldehyde and stained with May-Grünwald and Giemsa. Platelet deposition of the coverslip was evaluated as platelet surface coverage of 10 randomly chosen pictures using light microscopy (Olympus BX61 microscope using Analysis Five digital imaging solutions analysis software).
# [2] = cynomolgus monkey, in vivo
# Experimental: The pharmacokinetic profile of the constructs was analyzed in male cynomolgus monkeys of approximately 3 to 4 years old and was compared to the reference (SEQ ID NO:165). The constructs and the control were each injected in three monkeys at a dose of 2 mg/kg via an intravenous bolus injection. Blood samples were taken at predose, 5 min, 20 min, 1 h, 2 h, 4 h, 8 h (test day 1) after administration and at test days 2, 3, 5, 7, 9, 12, 15, 18, 21, 24, 27, 30, 33. In order to obtain at least 1 mL plasma per animal per sampling time, a sufficient volume of whole blood was withdrawn per sampling time. Plasma was collected after whole blood centrifugation for 30 minutes at 2200 g at room temperature (RT). The plasma samples were stored at −80° C. until analysis.
# For bioanalytical determination of constructs and control article in monkey plasma, plasma samples were tested for levels of constructs and the control using ELISA based PK assays. The detection of control and constructs in the ELISA assays is based on the binding of these Nanobodies with vWF and the assay set-ups are as such that total vWF-binding Nanobody is detected.
# For the reference (SEQ ID NO:165) and the construct of SEQ ID NO:167, 96-well microtiter plates (Maxisorp, Nunc, Wiesbaden, Germany) were coated overnight at 4° C. with neutravidin (Pierce) in 10:10 buffer at 3 μg/ml. Wells were aspirated and blocked for 1 hour at RT with PBS/1% casein. After this blocking step, wells were washed with PBS/0.05% Tween20. A biotinylated bivalent Nanobody against the constructs was added to the neutravidin coated plate at 2 μg/ml in PBS/0.1% casein and incubated for 1 hour at RT. After the incubation step of this capture tool, wells were washed 3 times with PBS/0.05% Tween20.
# Preparations of the standards, QC samples and dilutions of the test samples were performed in a non-coated (polypropylene) plate. For the standard curve and QC-samples, solutions at the required concentrations were prepared in PBS/0.1% casein and spiked into 100% monkey plasma. To prepare standards and QC samples, a 1/100 dilution of the pure monkey plasma dilutions was made in IgM-Reducing Agent (Immunochemistry Technologies, Bloomington, USA) supplemented with 2.5% pooled human plasma (referred to as sample diluent). For the test samples, dilution factors for the test samples were estimated, and ranged between 1/100 to 1/9000 for the reference of SEQ ID NO:165 tests and between 1/100 and 12000 for the construct of SEQ ID NO: 167. Samples were diluted 1/100 in sample diluent in a first step, and if needed, further dilution was done in sample diluent supplemented with 1% cynomolgus plasma.
# Standards, QC samples and diluted test samples were transferred onto the coated plate and incubated for 1 hour at RT. Afterwards the plates were washed followed by a complexation step with purified vWF (ZLB Behring). vWF diluted to 2.5 μg/ml for the assay for the reference of SEQ ID NO:165 and to 3 μg/ml for the assay for the construct of SEQ ID NO: 167 in PBS/0.1% casein was incubated on the plates for 30 minutes at RT. Plates were washed and Nanobody/vWF complexes bound to the capture tool detected with Rabbit anti-human vWF Ab (Dako, Denmark), diluted 1/2000 in PBS/0.1% casein and incubated for 30 minutes at RT. After washing, a 1/15000 dilution in PBS/0.1% casein of Horse-Radish-Peroxidase labelled goat anti-rabbit Ab (Dako, Denmark) was added to the plate and incubated for 30 minutes at RT. The enzyme coupled to the Ab catalyzes a chemical reaction with the substrate sTMB (3,3′,5,5′-tetramethylbenzidine, SDT reagents, Brussels, Belgium), resulting in a colorimetric change. After stopping this reaction after 10 minutes using HC1 (1N), the intensity of the colour was measured using a spectrophotometer at 450 nm. […]
# [3] = test system: VWF; assay: Pharmacodynamic profile: ristocetin cofactor activity assay (% RICO) after i.v. administration; assay type: in vivo, Cynomolgus monkey
# Experimental: For the constructs used in Example 14, pharmacodynamic characteristics upon compound administration were measured by means of a ristocetin cofactor activity assay (Biopool). The ristocetin cofactor activity is a functional assay for VWF, measuring the capacity of VWF to interact with the platelet receptor glycoprotein Ib using ristocetin as a modulator.
# For pharmacodynamic data analysis, descriptive statistics (mean and SD) were calculated per dose group and per sampling time point using Microsoft Excel 2007. Response parameters and associated statistics for the overall time course were calculated by noncompartmental analysis of the response-time data using WinNonlin Pro 5.1 (Pharsight Corporation, USA; 2006). The non-compartmental analysis was based on a model for pharmacodynamic data (Model 220). The threshold value was set at 20% based on extensive historical PK/PD data on the vWF-0001 compound. Preclinical studies have shown that a complete inhibition of the pharmacodynamic marker are correlated with full antithrombotic efficacy. The following main pharmacodynamic parameters were determined: time below the threshold (Time below T), area under the threshold (AUC below T), time at which the % RICO first drops below the threshold (Tonset), and time at which the % RICO first returns back above the threshold (Toffset).
# [4] = target: Cynomolgus monkey serum albumin (Macaca fascicularis, UniProt A2V9Z4); assay: Surface plasmon resonance (BIAcore 3000) of 2D3-9GS-56E4 and 2D3-9GS-59C2, Example 11; assay type: binding
# Cynomolgus monkey serum albumin, sequence (A2V9Z4 25-608): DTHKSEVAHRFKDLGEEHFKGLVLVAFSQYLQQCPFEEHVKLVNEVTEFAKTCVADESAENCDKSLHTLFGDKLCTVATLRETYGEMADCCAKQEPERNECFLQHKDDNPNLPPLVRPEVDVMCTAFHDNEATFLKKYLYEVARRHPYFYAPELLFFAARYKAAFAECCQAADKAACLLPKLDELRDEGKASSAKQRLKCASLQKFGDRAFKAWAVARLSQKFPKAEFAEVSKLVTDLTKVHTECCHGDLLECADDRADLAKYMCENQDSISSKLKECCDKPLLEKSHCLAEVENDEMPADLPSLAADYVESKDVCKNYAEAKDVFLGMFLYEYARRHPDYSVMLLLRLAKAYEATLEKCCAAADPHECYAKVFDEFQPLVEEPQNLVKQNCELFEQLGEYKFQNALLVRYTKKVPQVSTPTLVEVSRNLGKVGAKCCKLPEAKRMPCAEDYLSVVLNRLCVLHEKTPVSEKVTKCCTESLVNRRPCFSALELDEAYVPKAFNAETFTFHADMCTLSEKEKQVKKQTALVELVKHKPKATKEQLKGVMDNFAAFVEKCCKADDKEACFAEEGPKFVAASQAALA
# Experimental: The binding was determined in BIAcore™ 3000, by injecting concentration series of the fusion proteins ranging from 2 μM to 200 nM on a CM5 chip coated with ˜3000 RU HSA or CSA. Coating of the chip (CM5) was performed by amine coupling using NHS/EDC for activation and ethanolamine for deactivation (Biacore amine coupling kit). HBS-EP was used as flow buffer at a rate of 45 μl min-1. 90 μl of sample was injected for 120 s.
# [5] = Pharmacokinetic profile in male cynomolgus monkeys: monovalent Nanobody 2D3 constructs; assay type: in vivo, Cynomolgus monkey
# Experimental: The pharmacokinetic profile of this 2D3-9GS-EXP56E4 Nanobody construct (“construct” or “test item” hereafter) was analysed in male cynomolgus monkeys of approximately 3 to 4 years old and was compared to the 2D3 control (“control” or “negative control” hereafter). The construct and the control were each injected in three monkeys. Both the construct and the control were administered at a dose of 2 mg/kg via intravenous infusion. Blood samples were taken at predose, 5 min, 20 min, 1 h, 2 h, 4 h, 8 h, and 16 h after administration and at test days 2, 3, 5, 7, 9, 12, 15, 18, 21, 24, 27, 30, 33, 36, 39, 42, 45, 48, 51, 54, and 57 after the start of the infusion. In order to obtain at least 0.25 mL serum per animal per sampling time, a sufficient volume of whole blood was withdrawn per sampling time and the serum was isolated after 1 h of incubation at 37° C. The serum samples were stored at −80° C.
# Serum samples were tested for serum levels of construct and the control, respectively, using the following ELISA assay.
# 96-well microtiter plates (Maxisorp, Nunc, Wiesbaden, Germany) were coated for 1 hour at 37° C. with Recombinant Human ErbB2/Fc Chimera, C F (R&D Systems, Minneapolis) in PBS at 3 μg/mL for the negative control and 4.5 μg/mL for the test item. Wells were aspirated and blocked for 30 minutes at room temperature (RT) with SuperBlock®T20 PBS (Pierce, Rockford, Ill.). After this blocking step, wells were washed with PBS-0.05% Tween20.
# Preparations for the standards, QC samples and dilutions of the test samples were performed in a non-coated (polypropylene) plate.
# Standard curve and QC-samples: Solutions at the required concentrations were prepared in PBS 0.1% casein and spiked into 100% monkey serum. To prepare standards and QC samples, a 1/10 dilution of the pure monkey serum dilutions was made in PBS-0.1% casein.
# Test samples: Dilution factors for the test samples were estimated, and varied from 1/10 to 1/500. Samples were diluted 1/10 in PBS 0.1% casein in a first step, and if needed, further dilution was done in PBS 0.1% casein containing 10% monkey serum. These sample dilutions were further serially diluted 1/5 in PBS 0.1% casein with 10% monkey serum over 2 wells.
# Standards, QC samples and the 1/5 dilutions of the test samples were transferred onto the coated plate and incubated for 1 hour at RT. Afterwards the plates were washed and rabbit polyclonal anti-VHH K1, purified against protein A and Her2/Fc depleted, was added at 1 μg/mL in PBS 0.1% casein, and incubated for 1 hour at RT. After washing a 1/2000 dilution in PBS 0.1% casein of horse radish peroxidase labelled goat anti-rabbit (Dakocytomation, Denmark) was added to the plate and incubated for 30 minutes at RT. This enzyme catalyzes a chemical reaction with the substrate sTMB (3,3′,5,5′-tetramethylbenzidine, SDT reagents, Brussels, Belgium), which results in a colorimetric change. After stopping this reaction after 15 minutes using HCl (1N), the intensity of the colour was measured by a spectrophotometer, which determines the optical density of the reaction product, using a 450 nm wavelength of light.
# The concentration of the construct and the control in the serum samples was determined towards a standard curve of the construct and the control, respectively. The concentration determination was performed using the sigmoidal dose-response curve with variable slope. All serum samples were tested minimally in duplicate. Average values were reported. For each sample standard deviations and precision between the different results was calculated.
# For blood sampling and processing, the pharmacokinetic profile of the constructs (2D3-9GS-EXP56E4 and 2D3-9GS-EXP59C2) and the negative control 2D3 were determined in male Cynomolgus monkeys of approximately 3 to 4 years old and was compared to that of the control (2D3). The constructs and the control were administered to three monkeys at a dose of 2 mg/kg by intravenous bolus injection. […]
# [6] = threshold 20% RICO, i.v. bolus 2 mg/kg, male Cynomolgus monkey, mean n = 3
# [7] = serum, i.v. bolus 2 mg/kg, male Cynomolgus monkey, mean n = 3
molecule,measurement,setting,value
12A2_sv1-AAA-12A2_sv1-9GS-59C2-9GS-59C2 (protein) DVQLVESGGGLVQPGGSLRLSCAASGRTFSYNPMGWFRQAPGKGRELVAAISRTGGSTYYPESVEGRFTISRDNAKRTVYLQMNSLRAEDTAVYYCAAAGVRAEQGRVRTLPSEYTFWGQGTQVTVSSAAAEVQLVESGGGLVQPGGSLRLSCAASGRTFSYNPMGWFRQAPGKGRELVAAISRTGGSTYYPESVEGRFTISRDNAKRTVYLQMNSLRAEDTAVYYCAAAGVRAEQGRVRTLPSEYTFWGQGTQVTVSSGGGGSGGGSRDWDFDVFGGGTPVGGGGGGSGGGSRDWDFDVFGGGTPVGG,Effective concentration compared to VWF0001,[1]; FIG. 12,similar
same,inhibition of platelet adhesion to fibrillar collagen at arterial shear rate,"[1]; citrated human blood, wall shear rate 1600 s^−1, FIG. 12",dose-dependently and completely inhibit
same,Vdss lower relative to vWF0001,[2],19 fold
same,dominant half-life (t½ dominant) increase relative to vWF0001,[2],158 fold
same,mean CL decrease compared to the control,[2],67 fold
same,AUCinf,"[2]; iv, 2 mg/kg",4140 µg·h/mL
same,C0,"[2]; iv, 2 mg/kg",69.4 µg/mL
same,Tonset values,"[3]; estimated, i.v. application",~5 min
same,mean AUC under the threshold increase relative to vWF0001,[3]; i.v. bolus,259 fold
same,time below the threshold increase relative to vWF0001,[3]; i.v. bolus,167 fold
same,AUC below T,[3]; [6],1709 % RICO * h
same,Time below T,[3]; [6],202 h
same,Tonset,"[3]; time % RICO first drops below threshold, i.v. bolus 2 mg/kg",0.079 h
same,Toffset,"[3]; time % RICO first returns above threshold, i.v. bolus 2 mg/kg",202 h
"2D3-9GS-59C2: SEQ ID NO: 164, 59C2 without the two N-terminal alanines fused via 9GS linker to C-terminus of 2D3 (protein) EVQLVESGGSLVQPGGSLRLSCAASGFTFDDYAMSWVRQVPGKGLEWVSSINWSGTHTDYADSVKGRFTISRNNANNTLYLQMNSLKSEDTAVYYCAKNWRDAGTTWFEKSGSAGQGTQVTVSSGGGGSGGGSRDWDFDVFGGGTPVGG",koff (dissociation rate constant),[4]; dissociation rate,0.00247 s⁻¹
same,ka,[4]; untagged constructs,8.98E+03 1/ms
same,Vdss,"[5]; i.v. bolus 2 mg/kg, male Cynomolgus monkey, mean n = 3",0.0455 L/kg
same,exposure higher and total body clearance (CL) lower than after 2D3,"[5]; on average, relative to control article 2D3",77 fold
same,mean Vdss lower compared to 2D3,[5]; relative to 2D3,2.6 fold
same,AUCinf,[5]; [7],1540 µg·h/mL
same,C0,[5]; [7],62.5 µg/mL
